Experimental data: article PMC4513130, “Neuronal Calcium Sensor-1 Binds the D2 Dopamine Receptor and G-protein-coupled Receptor Kinase 1 (GRK1) Peptides Using Different Modes of Interactions*” (The Journal of Biological Chemistry, 2015)

Assays:
[1] = target: T1, Rattus norvegicus neuronal calcium sensor-1 (NCS-1), full-length, Ca2+-bound (Rattus norvegicus, UniProt P62168 1-190); assay: ITC; 1 mM Ca2+/NCS-1 in the syringe titrated into 100 uM D2R peptide in the cell, 25 °C, 50 mM Tris-HCl, 50 mM NaCl, 5 mM CaCl2, pH 7.5; fitted to a sequential model and to a two-site nonsequential model with stoichiometry fixed at 1:2 NCS-1:peptide; settings: both partners purified
T1 construct: Neuronal calcium sensor-1, Rattus norvegicus, Swiss-Prot P62168, full length (residues 1-190); also called Ca2+/NCS-1; rat NCS-1

[2] = target: T1, Rattus norvegicus neuronal calcium …; assay: crystal structure; NCS-1 (1 mM) with 2-fold excess of GRK1 peptide; 0.12 M alcohols, 0.1 M HEPES/MOPS pH 7.5, 30% PEGMME 550 and PEG 20000, 20 °C; 2.30 Å; settings: both partners purified

Binder	Kd [1]	binding result [2]
NIEFRKAFLKILHSR (terminal Arg added to improve solubility; also called D2B (copy in the N-lobe site); D2C (copy in the C-lobe site); source: synthetic peptide, bought: GenicBio, China (>95% pure)) [D2 receptor peptide (D2R peptide)]	40 ± 6 µM	
MDFGSLETVVANSAFIAARGSFDGS (also called RK25; source: synthetic peptide, bought: GenicBio, China (>95% pure)) [GRK1 peptide (N terminus of G-protein-coupled receptor kinase 1, residues 1-25)]		binds
